From patent US20190030060A1

Tests used:
[1] = target: recombinant human Sema4D (sCD100) (Cat #310-29) (Peprotech, Rocky Hill, N.J.) (human) (UniProt Q92854); assay: indirect ELISA, antigen coated on plate, standard curve with recombinant Sema4D, goat anti-mouse IgM-HRP
[2] = target: Semaphorin 4D secreted by HNSCC cell lines into conditioned medium (cleaved form, ~120 KDa) (human) (UniProt Q92854); assay: cell-based or functional assay

Substance | detection limit [1] [ng/mL] | reduction in the MDSC population (CD33+ CD11b+ HLA-DR-/low) of myeloid cells cultured in HNSCC conditioned medium, flow cytometry, against isotype control mAb [2] [%]
anti-human CD100 antibody (clone: 133-1C6; Novus Biologicals) | 3.1 | –
anti-Sema4D antibody (clone 30/CD100) (Cat #610670) (BD Biosciences PharMingen, San Diego, Calif.) | – | 50
